Results reported in paper PMC6352652, “Targeting early changes in the synovial microenvironment: a new class of immunomodulatory therapy?” (Annals of the Rheumatic Diseases, 2018).

What was measured:
[1] = target: T1, fibrinogen-like globe (FBG) domain of human tenascin-C (human, UniProt P24821); experiment: ELISA; solid phase binding assay: recombinant human TLR4 coated onto a 96-well plate; recombinant human FBG preincubated with C3 or isotype control antibody was added; bound FBG detected; conditions: both partners purified
T1 construct: tenascin-C, human, fibrinogen-like globe (FBG) domain at the C-terminus; contact residues are numbered A2115 to H2175; the constructs used for SPR, the crystal and the solid phase assay may differ; also called human FBG; recombinant human tenascin-C FBG; source: recombinant

[2] = target: T2, FBG domain of rat tenascin-C (Rattus norvegicus, UniProt A0A8I6AG89); experiment: SPR; at 37°C; C3 on human and rat FBG; who was immobilised not stated
T2 construct: tenascin-C, rat, fibrinogen-like globe (FBG) domain; Printed only as 'rat antigen'; construct in the supplementary methods; also called rat antigen

[3] = target: T1, fibrinogen-like globe (FBG) domain of …; experiment: as above

T1 sequence (P24821 1975-2201): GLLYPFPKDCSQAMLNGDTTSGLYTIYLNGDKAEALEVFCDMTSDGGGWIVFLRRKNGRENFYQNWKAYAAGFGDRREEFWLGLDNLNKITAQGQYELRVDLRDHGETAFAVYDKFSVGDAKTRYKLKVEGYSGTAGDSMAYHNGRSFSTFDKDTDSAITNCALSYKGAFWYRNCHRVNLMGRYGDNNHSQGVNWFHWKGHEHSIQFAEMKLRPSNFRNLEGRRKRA

B1: monoclonal antibody C3 (antibody, V domains shown)
VH: QVQLVESGGGLVQPGRSLRLSCAASGFTFDDYAMHWVRQAPGKGLEWVSGISGSGGSTYYADSVKGRFTISRDNAKNSLYLQMNSLRAEDTALYYCAKSYQSDEDAFDIWGQGTMVTVSS
VL: DIQMTQSPASLPTPVGDRVTITCRASQYIQGFLNWYQQKPGKAPKLLIYDASNLETGVPSRFSGSGSGTDFTLTISSLQPEDFATYYCQQSYSTPQTFGQGTKVDIK
notes: variable part as the heavy chain of m2 (crystal structure solved here, Fab chain B); as the light chain of m2 (crystal structure solved here, Fab chain C); in the solid phase and cell assays it is compared with an isotype control antibody; also called clone C3
[1]
  IC50: 45.6 nM
[2]
  Kd: 1.2 nM
[3]
  Kd: 0.07 nM
